Source: patent publication US20160362487A1 (Regeneron, published 2016)

T1: human IL-33 (R&D Systems, #3625-IL-010/CF) (human, UniProt O95760 112-270)
T1 construct: Commercial recombinant protein; also called hIL-33; interleukin-33
T1 sequence (looked up): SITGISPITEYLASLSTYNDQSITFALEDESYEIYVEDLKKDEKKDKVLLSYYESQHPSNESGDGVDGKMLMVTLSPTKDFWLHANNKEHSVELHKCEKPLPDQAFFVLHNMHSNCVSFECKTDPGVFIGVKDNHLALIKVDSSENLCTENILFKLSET

T2: cynomolgus monkey IL-33 expressed with a C-terminal hexahistidine tag (cynomolgus monkey)
T2 construct: also called MfIL-33-6His; Mf-IL-33-6His
T2 chain: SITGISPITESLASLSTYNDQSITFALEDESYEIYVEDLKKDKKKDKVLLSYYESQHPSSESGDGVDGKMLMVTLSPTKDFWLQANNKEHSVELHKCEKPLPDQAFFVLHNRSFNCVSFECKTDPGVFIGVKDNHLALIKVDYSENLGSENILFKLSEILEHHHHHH


Key:
[1] = biological target: T1, human IL-33 (R&D Systems, …); assay: BLI; hIL-33 pre-mixed with mAb-2 Isotype control 1
Experimental: (§1) Binding competition between a panel of different anti-IL-33 monoclonal antibodies was determined using a real time, label-free bio-layer interferometry assay on an Octet® HTX biosensor (ForteBio, A Division of Pall Life Sciences). The experiment was performed at 25° C. using a buffer of 0.01M HEPES pH7.4, 0.15M NaCl, 0.05% v/v Surfactant Tween-20, and 0.1 mg/ml BSA (HBS-ET kinetics buffer) with the plate shaking at a speed of 1000 rpm. To assess whether two antibodies were able to compete with one another for binding to human IL-33, a pre-mix assay format was used where 100 nM of human IL-33 (R&D Systems; #3625-IL-010/CF) was pre-mixed with 500 nM of different anti-IL-33 monoclonal antibodies (subsequently referred to as mAb-2) for at least 2 hours prior to running the binding competition assay. […] Following the capture step, unoccupied anti-mouse Fc polyclonal antibody and anti-human Fc polyclonal antibody on the Octet biosensors were saturated by submerging them for 4 minutes into wells containing 200 μg/mL of a non-specific monoclonal antibody with a mouse Fc or with a human Fc, respectively. Finally, the Octet biosensors were immersed for 4 minutes into wells containing the pre-mixed samples of 100 nM of human IL-33 and 500 nM of mAb-2. At the end of each cycle, the non-covalently captured anti-IL-33 antibodies along with the bound pre-complex of human IL-33 and mAb-2 were removed from the biosensors using three alternate 20 second immersions into 10 mM HCl followed by submerging into HBS-ET kinetics buffer. The biosensors were washed in HBS-ET kinetics buffer in between every step of the experiment. The real-time binding response was monitored during the binding events, and the binding response (in units of nm) at the end of every step was recorded.

[2] = biological target: T1, human IL-33 (R&D Systems, …); assay: SPR 37C, pH6.0 chase, mAb captured
Experimental: (§2) Equilibrium dissociation constants (KD values) for IL-33 binding to purified anti-IL-33 monoclonal antibodies were determined using a real-time surface plasmon resonance biosensor using a Biacore 4000 instrument. The Biacore sensor surface was first derivatized by amine coupling with either a polyclonal rabbit anti-mouse antibody (GE, # BR-1008-38) or with a monoclonal mouse anti-human Fc antibody (GE, # BR-1008-39) to capture anti-IL-33 monoclonal antibodies expressed with mouse or with human IgG4 constant regions, respectively. All Biacore binding studies were performed in 0.01M ADA pH 7.4, 0.15M NaCl, 3 mM EDTA, and 0.05% v/v Surfactant Tween-20 (ABS-ET running buffer). […] Association of either hIL-33 or MfIL-33-6His to the captured monoclonal antibody was monitored for 4 minutes and their dissociation in ABS-ET running buffer was monitored for 10 minutes. The effect of reduced pH on the binding of each anti-IL-33 antibody to either hIL-33 or MfIL-33-6His was studied using an in-line pH chase assay format in 0.01M ADA pH 6.0, 0.15M NaCl, 3 mM EDTA, and 0.05% v/v Surfactant Tween-20 (ABS-ET pH6 buffer). To achieve this, association of either hIL-33 or MfIL-33-6His to the captured monoclonal antibody was monitored for 4 minutes in ABS-ET running buffer. Following a 30 second dissociation of either hIL-33 or MfIL-33-6His in ABS-ET running buffer, ABS-ET pH6 buffer was injected for 3 minutes, and the analyte dissociation under the low-pH conditions was measured. All the binding kinetic experiments were performed at both 25° C. and 37° C. Kinetic association (kₐ) and dissociation (kd) constants were determined by fitting the real-time sensorgrams to a 1:1 binding model using Scrubber 2.0c curve fitting software. Binding dissociation equilibrium constants (KD) and dissociative half-lives (t½) were calculated from the kinetic rate constants as: […]

[3] = biological target: T2, cynomolgus monkey IL-33 expressed with …; assay: SPR 37C, pH6.0 chase, mAb captured
Experimental: as §2

[4] = biological target: T1, human IL-33 (R&D Systems, …); assay: BLI; hIL-33 pre-mixed with mAb-2 Isotype control 2
Experimental: as §1

[5] = biological target: T2, cynomolgus monkey IL-33 expressed with …; assay: BLI; mAb-1 on captured MfIL-33-6His
Experimental: Binding competition between a panel of different anti-IL-33 monoclonal antibodies was determined using a real time, label-free bio-layer interferometry assay on an Octet® HTX biosensor (ForteBio, A Division of Pall Life Sciences). The experiment was performed at 25° C. using a buffer of 0.01M HEPES pH7.4, 0.15M NaCl, 3 mM EDTA, 0.05% v/v Surfactant Tween-20, and 0.1 mg/ml BSA (HBS-ET kinetics buffer) with the plate shaking at a speed of 1000 rpm. […] The antigen-captured biosensors were then saturated with a first anti-IL-33 monoclonal antibody (subsequently referred to as mAb-1) by immersion into wells containing 50 μg/mL solution of mAb-1 for 5 minutes. The biosensors were then dipped into wells containing a 50 μg/mL solution of a second anti-IL-33 monoclonal antibody (subsequently referred to as mAb-2) for 4 minutes. The biosensors were washed in HBS-ET kinetics buffer in between every step of the experiment. The real-time binding response was monitored during the experiment, and the maximum binding response for each binding step was recorded. The response of mAb-2 binding to MfIL-33-6His pre-complexed with mAb-1 was measured, and competitive/non-competitive behavior of different anti-IL-33 monoclonal antibodies with respect to each other was determined.

Binder	mAb-1 Binding to the Pre-complex of mAb-2 & hIL-33 [1] [nm]	koff [2] [s⁻¹]	t½ [2] [min]	t½ Ratio (pH 7.4/pH 6.0) [2]	koff [3] [s⁻¹]	t½ [3] [min]	t½ Ratio (pH 7.4/pH 6.0) [3]	mAb-1 Binding to the Pre-complex of mAb-2 & hIL-33 [4] [nm]	mAb-1 Binding (nm) [5] [nm]
H4H9670P (antibody, V domains shown, Human IgG4 Fc (H4H)) VH: EVQLVESGGGLVQPGGSLRLSCAASGFTLSSYAMSWVRQAPGKGLEWVSAISGSGGSTYYADSVKGRFTISRDNSKNSLYLQLNSLRAEDTAVYYCAKTLYTTSWYGGFQHWGQGTLVTVSS VL: DIQMTQSPSSVSASIGDRVTITCRASQGISSWLAWYQQKPGKVPKLLIYAASSLQSGFPSRFSGSGSGTDFTLTISSLQPEDFATYYCQQTHSFPWTVGQGTKVEIK	0.19	0.00383	3	4.9	0.00165	7	0.3	0.12	0.56
H4H9659P (antibody, human IgG4, V domains shown, Human IgG4 Fc (H4H)) VH: QVQLVQSGAEVKKPGASVKVSCKASGYTFNSYGISWVRQAPGQGLEWMGWISSHNGNSHYVQKFQGRVSMTTDTSTSTAYMELRSLRSDDTAVYYCARHSYTTSWYGGFDYWGQGTLVTVSS VL: DIQMTQSPSSVSASVGDRVTITCRASQGFSSWLAWYQQKPGKAPQLLIYAASSLQSGVPSRFSGSGSGSDFTLTISSLQPEDFATYYCQQANSFPLTFGGGTKVEIK	0.17	0.00299	4	7.4	0.00102	11	0.5	0.09	0.56
H4H9665P (antibody, human IgG4, V domains shown, Human IgG4 Fc (H4H)) VH: EVQLVESGGGLVQPGGSLRLSCAASGFTFSNYAMTWVRQAPGKGLEWVSTISGSGDNTYYADSVQGRFTISRGHSKNTLYLQMNSLRAEDTAVYYCAKPTYSRSWYGAFDFWGQGTMVTVSS VL: DIQMTQSPSSVSASVGDRVTITCRASQGISSWLAWYQQKPGKAPQLLIYAASRLQSGVPSRFWGSGSGTDFTLTISSLQPEDFATYYCQQANNFPFTFGPGTKVDIK	0.14	0.00965	1	6.7	0.004	2.9	1.9	0.09	0.63
H4H9662P (antibody, V domains shown, Human IgG4 Fc (H4H)) VH: EVQLVESGGGLVQPGGSLRLSCAASGFTFSSYALTWVRQAPGKGLEWVSFISGSGGRPFYADSVKGRFTISRDNSKNMLYLQMNSLRAEDTAIYYCAKSLYTTSWYGGFDSWGQGTLVTVSS VL: DIQMTQSPSSVSASVGDRVTITCRASQGVVSWLAWYQQKPGKAPKLLIYAASSLQSGVPSRFSGSGSGTDFTLTISSLQPEDFATYYCQQSNSFPFTLGPGTKVDIK	0.19	0.00383	3	6.2	0.00168	7	1.1	0.11	0.56

Results, then the binder that gave them:

mAb-1 Binding to the Pre-complex of mAb-2 & hIL-33 [1] [nm]	koff [2] [s⁻¹]	t½ [2] [min]	t½ Ratio (pH 7.4/pH 6.0) [2]	koff [3] [s⁻¹]	t½ [3] [min]	t½ Ratio (pH 7.4/pH 6.0) [3]	mAb-1 Binding to the Pre-complex of mAb-2 & hIL-33 [4] [nm]	mAb-1 Binding (nm) [5] [nm]	Binder
0.16	0.00279	4	3.9	0.00193	6	0.3	0.1	0.61	H4H9664P (antibody, human IgG4, V domains shown, Human IgG4 Fc (H4H)) VH: QVQLVESGGGVVQPGRSLRLSCAASGFTFSSYGLHWVRQSPGKGLEWVALISYDGSNKYYADSVKGRFTISRDNSKNTLYLQMNSLRPEDTAGYFCAKSLYTTSWYGGFDYWGQGTLVTVSS VL: DIQMTQSPSSVSASVGDRVTITCRASQGIRSWLAWYQQKPGKAPNLLIYAASSLQSGVPSRFSGSGSGTDFTLTISSLQPEDFATYYCQQANSFPPTFGPGTKVDIK
0.17	0.00462	3	3.7	0.00354	3.3	1	0.09	0.54	H4H9663P (antibody, human IgG4, V domains shown, Human IgG4 Fc (H4H)) VH: QVQLVQSGAEVKKPGASVKVSCKASGYTFTGHYMYWMRQAPGQGLEWMGWINPNSGGTNYAQKFQDRVTMTRDTSISTAYMELSRLRSDDTAVYYCARGRYGSSWYGGFEYWGQGTLVTVSS VL: DIQMTQSPSSVSASVGDRVTITCRASQGITSWLAWYQQKPGKAPNLLIYAAASLQSGVPSRFSGSGSGTDFTLTISSLQPEDFTTYYCQQAYSLPLTFGGGTKVEIK
0.23	0.00244	5	4	0.00268	4	0.8	0.12	0.5	H4H9667P (antibody, human IgG4, V domains shown, Human IgG4 Fc (H4H)) VH: EVQLVESGGGLVQPGGSLRLSCAASGFTFSTYSMHWVRQAPGKGLEYVSTINNNGDTTYYADSVKGRFTISRDNSKNTLYLQLGSLRPEDMAVYYCARQTYTSSWYGGFDSWGQGTLVTVSS VL: DIQMTQSPSSVSASVGDRVTITCRASQGITSWLAWYQQKPGKAPKLLIYAASNLQSGVPSRFSGSGSGTDFTLTITSLQPEDFATYYCQQANSLPFTFGPGTKVDIK
0.21	0.00323	4	6.8	0.00463	2.5	1	0.15	0.58	H4H9660P (antibody, human IgG4, V domains shown, Human IgG4 Fc (H4H)) VH: EVQLVESGGGLVQPGGSLRLSCAASGITLSSYGMSWVRQAPGKGLEWVASIFGSGGGPYYADSVKGRFTMSRDNSKNTLYLQMNSLRAEDTAVYYCAKDRYSGSYYGGFDYWGRGTLVTVSS VL: DIQMTQSPSSVSASVGDRVTITCRASQGITSWLAWYQQKPGKAPTLLIYAASSLQTGVPSRFSGSGSGTDFTLTISSLQPEHFATYYCQQANSFPPTFGGGTKVEIK
